Laboratory results: US8158585B2, “Cross-β structure comprising amyloid-binding proteins and methods for detection of the cross-β structure, for modulating cross-β structures fiber formation and modulating cross-β structure-mediated toxicity” (CrossBeta Biosciences B.V., priority 2002, dated 2012)
Where no end group is shown, it is not given here.

Tests used:
tPA = target: T1, tPA (Homo sapiens, UniProt P00750); assay: ELISA: binding of tPA to glycated albumin and Hb; conditions: g6p-glycated protein immobilized
T1 construct: purchased Boehringer-Ingelheim (Germany)
T1 sequence (P00750 36-562): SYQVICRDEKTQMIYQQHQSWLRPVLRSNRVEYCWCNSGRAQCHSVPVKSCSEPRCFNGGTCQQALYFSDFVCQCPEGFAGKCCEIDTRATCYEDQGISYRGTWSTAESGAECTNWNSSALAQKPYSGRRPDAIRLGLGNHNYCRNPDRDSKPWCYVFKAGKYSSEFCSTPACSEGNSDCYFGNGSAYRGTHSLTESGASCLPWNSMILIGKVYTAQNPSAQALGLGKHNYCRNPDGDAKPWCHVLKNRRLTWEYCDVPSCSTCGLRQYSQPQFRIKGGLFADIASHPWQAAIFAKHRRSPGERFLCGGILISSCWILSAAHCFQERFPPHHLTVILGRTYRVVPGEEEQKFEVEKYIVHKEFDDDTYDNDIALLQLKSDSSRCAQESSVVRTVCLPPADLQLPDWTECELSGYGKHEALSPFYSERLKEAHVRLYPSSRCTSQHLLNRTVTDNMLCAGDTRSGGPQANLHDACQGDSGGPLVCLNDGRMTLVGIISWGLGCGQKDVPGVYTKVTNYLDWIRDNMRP
Protocol: Binding of tPA to albumin-g6p (four-week and 23-week incubations), albumin-glyceraldehyde, control albumin, human Hb-g6p (ten-week incubation), Hb control, or to Aβ (1-40) was tested using an enzyme-linked immunosorbent assay (ELISA) set-up. Albumin-g6p and control albumin (2.5 μg ml^−1 in coat buffer, 50 mM Na2CO3/NaHCO3 pH 9.6, 0.02% m/v NaN3, 50 μl/well) were immobilized for one hour at room temperature in 96-well protein Immobilizer plates (Exiqon, Vedbaek, Denmark). Aβ (1-40) (10 μg ml^−1 in coat buffer) was immobilized for 75 minutes at room temperature in a 96-well peptide Immobilizer plate (Exiqon, Vedbaek, Denmark). Control wells were incubated with coat buffer only. After a wash step with 200 μl of PBS/0.1% v/v Tween 20, plates were blocked with 300 μl of PBS/1% v/v Tween 20, for two hours at room temperature while shaking. All subsequent incubations were performed in PBS/0.1% v/v Tween 20 for one hour at room temperature while shaking, with volumes of 50 μl per well. After each incubation, wells were washed five times with 200 μl of PBS/0.1% v/v Tween 20. Increasing amounts of f.l. tPA or K2-P tPA was added in triplicate to coated wells and to control wells. […] Absorbance was read at 490 nm on a Vmax kinetic microplate reader (Molecular Devices, Sunnyvale, Calif., USA).

Aβ = target: T2, Aβ (Homo sapiens, UniProt P05067); assay: Solid-phase binding ELISA of tPA, plasminogen and plasmin to coated Aβ
T2 construct: Peptide Aβ (1-40), containing amino acids as present in the described human Alzheimer peptide; purchased Pepscan, Inc. or peptide synthesis facility of the Netherlands Cancer Institute; host or cells: chemical synthesis
T2 sequence (P05067 672-711): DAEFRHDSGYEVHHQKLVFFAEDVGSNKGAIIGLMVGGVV
Protocol: FIG. 3 is a set of graphs depicting binding of tPA, plasminogen and plasmin to Aβ. Aβ was coated onto plastic 96-well plates. Increasing concentrations of either (A) tPA or (B) plasmin(ogen) were allowed to bind to the immobilized peptide. After extensive washing, tPA and plasmin(ogen) binding was assessed by enzyme-linked immunosorbent assays using anti-tPA and anti-plasminogen antibodies. Binding of (C) tPA and (D) plasmin to Aβ in the presence of 50 mM ε-aminocaproic acid (ε-ACA) was assessed as in A and B.
To test whether tPA, plasminogen and plasmin bind Aβ, solid-phase binding assays were performed. Aβ was coated onto plastic 96-well plates and binding of the peptide to either plasmin(ogen) or to tPA was assessed by overlaying the coated peptide with increasing concentrations of either tPA, plasminogen or plasmin. Binding was assessed using specific antibodies to either plasmin(ogen) or to tPA by performing ELISA. […] However, activated plasminogen (plasmin) does bind to Aβ and does so with a kD of 47 nM. […] To test this, use was made of the lysine analogue ε-aminocaproic acid (εACA) and binding of plasmin and tPA to Aβ was tested in its presence. […] In contrast, εACA has no effect on the tPA-Aβ interaction (FIG. 3, Panel C). Thus, it was concluded that plasmin binds to free lysines that were generated during the incubation period, presumably via its lysine-binding Kringle domain(s). In line with this, the kD of plasminogen Kringle domain binding to free lysines in fibrin is similar to the kD for plasmin binding to Aβ.

[1] = test system: differentiated N1E-115 cells; assay: N1E-115 cell detachment (methylene blue staining); format: cell-based, mouse
Protocol: FIG. 4 is a set of graphs illustrating stimulation of tPA-mediated plasmin formation by Aβ and synergistic stimulation of cell detachment by plasminogen and Aβ. Panel A depicts that plasminogen (200 μg/ml) and tPA (200 pM) were incubated with Aβ (5 μM) or control buffer. Samples were taken from the reaction mixture at the indicated periods of time and plasmin activity was measured by conversion of the chromogenic plasmin substrate S-2251 at 405 nm. […] After 48 hours, the dead cells were washed away and the remaining adherent cells were stained with methylene blue. Plasmin cannot prevent Aβ-induced cell detachment. Panel C illustrates that N1E-115 cells were differentiated and received the indicated concentrations of plasminogen in the presence or absence of 10 μM Aβ. After 24 hours, cell detachment was assessed. […] Panel D is an immunoblot analysis of plasmin formation and laminin degradation. Differentiated N1E-115 cells were treated with or without Aβ (10 μM) in the absence or presence of added plasminogen. Addition of Aβ results in the formation of plasmin (bottom panel) and in degradation of laminin (top panel).
FIG. 5 depicts graphs illustrating that carboxypeptidase B inhibits Aβ-stimulated tPA-mediated plasmin formation and cell detachment. […] Samples were taken from the reaction mixture at the indicated periods of time and plasmin activity was measured by conversion of the chromogenic plasmin substrate S-2251 at 405 nm. The reaction was performed in the absence or the presence of 50 μg ml^−1 carboxypeptidase B (CpB) and in the absence or presence of 3.5 μM carboxypeptidase inhibitor (CPI). CpB greatly attenuates A-stimulated plasmin formation. […] After 24 hours, the cells were photographed. Panel C illustrates that, subsequently, the cells were washed once with PBS and the remaining cells were quantified as percentage-adhered cells by methylene blue staining. In Panel D, the cells were treated as in Panels B and C and medium and cell fractions were collected and analyzed by Western blot using an anti-plasmin(ogen) antibody. Aβ stimulates plasmin formation that is inhibited by CpB.
N1E-115 mouse neuroblastoma cells were routinely cultured in DMEM containing 5% FCS, supplemented with antibiotics. Cells were differentiated into post-mitotic neurons.^52 The cells were exposed to Aβ (50 μg ml^−1) for 24 hours in the presence or absence of 20 μg ml^−1 plasminogen in the presence or absence of 50 μg ml^−1 CpB. Cells were photographed, counted and lysed by the addition of 4× sample buffer (250 mM Tris pH 6.8, 8% SDS, 10% glycerol, 100 mM DTT, 0.01% w/v bromophenol blue) to the medium. The lysate, containing both adherent and floating (presumably dying and/or dead) cells, as well as the culture medium, were analyzed for the presence of plasminogen and plasmin, as well as for laminin, by Western blot analysis using specific antibodies against plasminogen (MoAb 3642, American Diagnostics), laminin (PoAb L9393, Sigma).

Aβ (1-40) = Aβ (1-40) (Homo sapiens, UniProt P05067); assay: ELISA: binding of tPA-F-GST and RPTPμ-GST to human Aβ (1-40); design: Peptide Aβ (1-40), containing amino acids as present in the described human Alzheimer peptide; purchased Pepscan, Inc. (The Netherlands) or peptide synthesis facility at the Netherlands Cancer Institute; host or cells: synthetic peptide; conditions: detection with anti-GST 2F3
Chain of Aβ (1-40) (P05067 672-711): as above
Protocol: (§1) Binding of tPA-F-GST and RPTPμ-GST to fibrous amyloids human Aβ (1-40) and albumin-[…] was assayed with an ELISA. In brief, human Aβ (1-40), albumin-[…], or buffer only, were coated on a peptide I Immobilizer or a protein I Immobilizer, respectively. Wells were incubated with the purified GST-tagged constructs or control medium and binding was detected using primary anti-GST monoclonal antibody 2F3 and RAMPO. The wells were also incubated with […] of tPA in the presence of 10 mM of εACA. Binding of tPA is independent of the lysyl binding site located at the kringle 2 domain. Binding of tPA was measured using primary antibody 374B and RAMPO. Experiments were performed in triplicate and blank readings of non-coated wells were substracted.

Aβ fibrils = target: T3, Aβ fibrils (Homo sapiens, UniProt P05067); assay: Amyloid pull-down with insoluble Aβ fibers; format: binding; conditions: conditioned BHK medium
T3 construct: Peptide Aβ (1-40), containing amino acids as present in the described human Alzheimer peptide; purchased Pepscan, Inc. (The Netherlands) or peptide synthesis facility at the Netherlands Cancer Institute; host or cells: synthetic peptide
T3 sequence (P05067 672-711): as above
Protocol: Conditioned medium of BHK cells expressing GST-tagged tPA F, F-EGF, EGF, K1, F-EGF-K1, FXII F, HGFa F, Fn F4, Fn F5, Fn F4-5 and GST was used for amyloid binding assays. At first, constructs were adjusted to approximately equal concentration using Western blots. Qualitative binding of the recombinant fragments were evaluated using a “pull-down” assay. To this end, the recombinantly made fragments were incubated with either Aβ or IAPP fibrils. Since these peptides form insoluble fibers, unbound proteins can be easily removed from the fibers following centrifugation. The pellets containing the bound fragments were subsequently washed several times. Bound fragments were solubilized in SDS-sample buffer and analyzed by PAGE, as were unbound proteins in the supernatant fraction and starting material. The gels were analyzed using immunoblotting analysis with the anti-GST antibody Z-5.

albumin-g6p = target: T4, albumin-g6p (Bos taurus, UniProt P02769); assay: ELISA: binding of tPA-F-GST and RPTPμ-GST to glycated albumin; design: species or system bovine; conditions: detection with anti-GST 2F3
T4 construct: Bovine serum albumin (BSA) fraction V pH 7.0; host or cells: bovine serum, fraction V
T4 sequence (P02769 25-607): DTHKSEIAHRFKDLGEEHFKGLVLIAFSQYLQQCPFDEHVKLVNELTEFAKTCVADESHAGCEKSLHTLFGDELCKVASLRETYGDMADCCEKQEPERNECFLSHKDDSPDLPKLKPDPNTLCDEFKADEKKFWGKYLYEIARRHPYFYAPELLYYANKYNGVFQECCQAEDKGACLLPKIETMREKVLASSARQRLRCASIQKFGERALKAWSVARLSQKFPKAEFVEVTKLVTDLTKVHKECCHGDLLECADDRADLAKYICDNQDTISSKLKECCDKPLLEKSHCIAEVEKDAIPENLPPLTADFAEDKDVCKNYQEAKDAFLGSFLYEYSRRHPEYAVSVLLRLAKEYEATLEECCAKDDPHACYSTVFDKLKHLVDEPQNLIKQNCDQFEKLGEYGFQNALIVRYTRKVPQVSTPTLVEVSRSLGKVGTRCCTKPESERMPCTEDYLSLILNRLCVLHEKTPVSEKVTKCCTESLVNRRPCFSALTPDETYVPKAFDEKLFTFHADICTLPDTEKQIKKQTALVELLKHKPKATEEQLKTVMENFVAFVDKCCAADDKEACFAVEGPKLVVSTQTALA
Protocol: as §1

Molecule: Hb-g6p: human hemoglobin incubated with glucose-6-phosphate
- tPA binding (tPA): high-affinity tPA binding

Molecule: plasminogen: inactive precursor of plasmin, cleaved by tPA
- binding to Aβ (Aβ; Aβ coated onto plastic 96-well plates): No detectable binding
- cell adhesion in the absence of Aβ ([1]; 24 hours): no effect
- minimal levels required to potentiate Aβ-induced cell detachment ([1]; 24 hours): 10 to 20 µg/mL
- effect on Aβ-induced cell detachment ([1]; suboptimal Aβ (10 μM), low plasminogen, 24 hours): dramatic potentiating effect

Molecule: tPA-F-GST: amino-terminal finger domain (F) of human tPA, residues Ser1-Ser50, with GST tag (SYQVICRDEKTQMIYQQHQSWLRPVLRSNRVEYCWCNSGRAQCHSVPVKS-{GST}; cysteine pairing not given here)
- binding of GST-tagged construct to human Aβ (1-40) (Aβ (1-40)): bound
- binding to Aβ fibers (pull-down, Western blot) (Aβ fibrils): Efficient binding
- binding of GST-tagged construct to albumin-g6p (albumin-g6p): bound

B1: plasmin: activated plasminogen (protein)
chain: KVYLSECKTGNGKNYRGTMSKTKNGITCQKWSSTSPHRPRFSPATHPSEGLEENYCRNPDNDPQGPWCYTTDPEKRYDYCDILECEEECMHCSGENYDGKISKTMSGLECQAWDSQSPHAHGYIPSKFPNKNLKKNYCRNPDRELRPWCFTTDPNKRWELCDIPRCTTPPPSSGPTYQCLKGTGENYRGNVAVTVSGHTCQHWSAQTPHTHNRTPENFPCKNLDENYCRNPDGKRAPWCHTTNSQVRWEYCKIPSCDSSPVSTEQLAPTAPPELTPVVQDCYHGDGQSYRGTSSTTTTGKKCQSWSSMTPHRHQKTPENYPNAGLTMNYCRNPDADKGPWCFTTDPSVRWEYCNLKKCSGTEASVVAPPPVVLLPDVETPSEEDCMFGNGKGYRGKRATTVTGTPCQDWAAQEPHRHSIFTPETNPRAGLEKNYCRNPDGDVGGPWCYTTNPRKLYDYCDVPQCAAPSFDCGKPQVEPKKCPGRVVGGCVAHPHSWPWQVSLRTRFGMHFCGGTLISPEWVLTAAHCLEKSPRPSSYKVILGAHQEVNLEPHVQEIEVSRLFLEPTRKDIALLKLSSPAVITDKVIPACLPSPNYVVADRTECFITGWGETQGTFGAGLLKEAQLPVIENKVCNRYEFLNGRVQSTELCAGHLAGGTDSCQGDSGGPLVCFEKDKYILQGVTSWGLGCARPNKPGVYVRVSRFVTWIEGVMRNN
- binding to Aβ in the presence of εACA (Aβ; 50 mM ε-aminocaproic acid): completely abolished
- effect on Aβ-induced cell detachment ([1]; plasmin added with Aβ (25 μM), 48 hours): unable to ameliorate

B2: RPTPμ-GST: extracellular domain of receptor-like protein tyrosine phosphatase μ with GST tag, control (protein, UniProt P28827 21-742, looked up)
extracellular domain: ETFSGGCLFDEPYSTCGYSQSEGDDFNWEQVNTLTKPTSDPWMPSGSFMLVNASGRPEGQRAHLLLPQLKENDTHCIDFHYFVSSKSNSPPGLLNVYVKVNNGPLGNPIWNISGDPTRTWNRAELAISTFWPNFYQVIFEVITSGHQGYLAIDEVKVLGHPCTRTPHFLRIQNVEVNAGQFATFQCSAIGRTVAGDRLWLQGIDVRDAPLKEIKVTSSRRFIASFNVVNTTKRDAGKYRCMIRTEGGVGISNYAELVVKEPPVPIAPPQLASVGATYLWIQLNANSINGDGPIVAREVEYCTASGSWNDRQPVDSTSYKIGHLDPDTEYEISVLLTRPGEGGTGSPGPALRTRTKCADPMRGPRKLEVVEVKSRQITIRWEPFGYNVTRCHSYNLTVHYCYQVGGQEQVREEVSWDTENSHPQHTITNLSPYTNVSVKLILMNPEGRKESQELIVQTDEDLPGAVPTESIQGSTFEEKIFLQWREPTQTYGVITLYEITYKAVSSFDPEIDLSNQSGRVSKLGNETHFLFFGLYPGTTYSFTIRASTAKGFGPPATNQFTTKISAPSMPAYELETPLNQTDNTVTVMLKPAHSRGAPVSVYQIVVEEERPRRTKKTTEILKCYPVPIHFQNASLLNSQYYFAAEFPADSLQAAQPFTIGDNKTYNGYWNTPLLPYKSYRIYFQAASRANGETKIDCVQVATKGAATPKPVPEPEKQTDHTVK
modifications: extracellular domain GST tag
notes: extracellular domain of receptor-like protein tyrosine phosphatase μ with GST tag, control
- binding of GST-tagged construct to human Aβ (1-40) (Aβ (1-40)): no binding
- binding of GST-tagged construct to albumin-g6p (albumin-g6p): no binding
